# Data published in patent US20260001928A1 (CORTERIA PHARMACEUTICALS, priority 2022, published 2026).
# *1 amine or outer side, *2 acyl side, *3 side chain or, on linkers, in order; H or OH if unused. Where no end group is shown, it is not given here. Side-chain parts run from the residue outwards. [ ]: non-standard residue; d: D form. The star is where a group is joined. C16 diacid = O=C(O)CCCCCCCCCCCCCCC(=O)*; γGlu = O=C(O)[C@H](CCC(=O)[*:2])N[*:1]; αMeL = CC(C)C[C@](C)(N)C(=O)O; AEEA = NCCOCCOCC(=O)O; Aib = CC(C)(N)C(=O)O
# Tests used:
# CRF1R receptor = biological target: T1, CRF1R receptor (UniProt P34998 24-415, limits assumed); test: cell-based or functional assay
# T1 sequence (looked up): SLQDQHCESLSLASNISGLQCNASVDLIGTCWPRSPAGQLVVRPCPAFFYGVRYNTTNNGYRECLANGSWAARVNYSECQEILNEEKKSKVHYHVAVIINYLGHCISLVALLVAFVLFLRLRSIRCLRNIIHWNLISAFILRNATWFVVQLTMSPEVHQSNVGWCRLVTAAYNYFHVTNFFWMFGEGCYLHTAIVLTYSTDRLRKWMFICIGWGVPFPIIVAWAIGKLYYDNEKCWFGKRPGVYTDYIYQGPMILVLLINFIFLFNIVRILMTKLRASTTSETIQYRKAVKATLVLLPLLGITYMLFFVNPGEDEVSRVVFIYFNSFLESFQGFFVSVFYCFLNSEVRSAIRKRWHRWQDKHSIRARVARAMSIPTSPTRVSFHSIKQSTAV
# [1] = biological target: human corticotropin-releasing factor 2a (CRF2a receptor) (human), Q13324; test: cell-based or functional assay
# human corticotropin-releasing factor 2a (CRF2a receptor) (human), Q13324, sequence (Q13324 20-411): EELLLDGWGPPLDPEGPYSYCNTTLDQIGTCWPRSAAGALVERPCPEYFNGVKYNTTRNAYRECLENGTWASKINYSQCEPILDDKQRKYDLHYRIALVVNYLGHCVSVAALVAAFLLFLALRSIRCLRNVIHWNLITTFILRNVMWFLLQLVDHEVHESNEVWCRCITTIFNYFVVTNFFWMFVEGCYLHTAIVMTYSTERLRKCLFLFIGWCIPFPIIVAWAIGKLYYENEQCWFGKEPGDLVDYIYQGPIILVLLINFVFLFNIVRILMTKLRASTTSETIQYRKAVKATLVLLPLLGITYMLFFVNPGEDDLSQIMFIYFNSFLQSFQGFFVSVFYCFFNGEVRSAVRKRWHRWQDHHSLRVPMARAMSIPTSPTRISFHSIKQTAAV
Binder,Emax (% I) (CRF1R receptor) [%],EC50 [nM] (cAMP) [1],EC50 (CRF1R receptor) [nM]
Ac-VLSLD[dV]PIK[αMeL]K([γGlu-C16 diacid])KILLEQEKQKKQREQAETN[Aib]QILAQV-NH2 (SMILES CC[C@H](C)[C@H](NC(=O)[C@H](CCC(N)=O)NC(=O)C(C)(C)NC(=O)[C@H](CC(N)=O)NC(=O)[C@@H](NC(=O)[C@H](CCC(=O)O)NC(=O)[C@H](C)NC(=O)[C@H](CCC(N)=O)NC(=O)[C@H](CCC(=O)O)NC(=O)[C@H](CCCNC(=N)N)NC(=O)[C@H](CCC(N)=O)NC(=O)[C@H](CCCCN)NC(=O)[C@H](CCCCN)NC(=O)[C@H](CCC(N)=O)NC(=O)[C@H](CCCCN)NC(=O)[C@H](CCC(=O)O)NC(=O)[C@H](CCC(N)=O)NC(=O)[C@H](CCC(=O)O)NC(=O)[C@H](CC(C)C)NC(=O)[C@H](CC(C)C)NC(=O)[C@@H](NC(=O)[C@H](CCCCN)NC(=O)[C@H](CCCCNC(=O)CC[C@H](NC(=O)CCCCCCCCCCCCCCC(=O)O)C(=O)O)NC(=O)[C@](C)(CC(C)C)NC(=O)[C@H](CCCCN)NC(=O)[C@@H](NC(=O)[C@@H]1CCCN1C(=O)[C@H](NC(=O)[C@H](CC(=O)O)NC(=O)[C@H](CC(C)C)NC(=O)[C@H](CO)NC(=O)[C@H](CC(C)C)NC(=O)[C@@H](NC(C)=O)C(C)C)C(C)C)[C@@H](C)CC)[C@@H](C)CC)[C@@H](C)O)C(=O)N[C@@H](CC(C)C)C(=O)N[C@@H](C)C(=O)N[C@@H](CCC(N)=O)C(=O)N[C@H](C(N)=O)C(C)C) [SEQ ID NO 46],6,0.7,–
IVLSLD[dV]PIKLK([AEEA-AEEA-γGlu-C16 diacid])QILLKQERQKKQREQAEKNKQILEQV-NH2 [SEQ ID NO 148],13,0.65,100
Ac-IVLSLD[dV]PIK[αMeL]K([γGlu-C16 diacid])KILLEQEKQKKQREQAETDKQILAQV-NH2 (SMILES CC[C@H](C)[C@H](NC(C)=O)C(=O)N[C@H](C(=O)N[C@@H](CC(C)C)C(=O)N[C@@H](CO)C(=O)N[C@@H](CC(C)C)C(=O)N[C@@H](CC(=O)O)C(=O)N[C@@H](C(=O)N1CCC[C@H]1C(=O)N[C@H](C(=O)N[C@@H](CCCCN)C(=O)N[C@@](C)(CC(C)C)C(=O)N[C@@H](CCCCNC(=O)CC[C@H](NC(=O)CCCCCCCCCCCCCCC(=O)O)C(=O)O)C(=O)N[C@@H](CCCCN)C(=O)N[C@H](C(=O)N[C@@H](CC(C)C)C(=O)N[C@@H](CC(C)C)C(=O)N[C@@H](CCC(=O)O)C(=O)N[C@@H](CCC(N)=O)C(=O)N[C@@H](CCC(=O)O)C(=O)N[C@@H](CCCCN)C(=O)N[C@@H](CCC(N)=O)C(=O)N[C@@H](CCCCN)C(=O)N[C@@H](CCCCN)C(=O)N[C@@H](CCC(N)=O)C(=O)N[C@@H](CCCNC(=N)N)C(=O)N[C@@H](CCC(=O)O)C(=O)N[C@@H](CCC(N)=O)C(=O)N[C@@H](C)C(=O)N[C@@H](CCC(=O)O)C(=O)N[C@H](C(=O)N[C@@H](CC(=O)O)C(=O)N[C@@H](CCCCN)C(=O)N[C@@H](CCC(N)=O)C(=O)N[C@H](C(=O)N[C@@H](CC(C)C)C(=O)N[C@@H](C)C(=O)N[C@@H](CCC(N)=O)C(=O)N[C@H](C(N)=O)C(C)C)[C@@H](C)CC)[C@@H](C)O)[C@@H](C)CC)[C@@H](C)CC)C(C)C)C(C)C) [SEQ ID NO 53],5,8.05,–
Ac-IVLSLD[dV]PIK[αMeL]K([γGlu-C16 diacid])KILLEQEKQKKQREQAETNVQILAQV-NH2 (SMILES CC[C@H](C)[C@H](NC(C)=O)C(=O)N[C@H](C(=O)N[C@@H](CC(C)C)C(=O)N[C@@H](CO)C(=O)N[C@@H](CC(C)C)C(=O)N[C@@H](CC(=O)O)C(=O)N[C@@H](C(=O)N1CCC[C@H]1C(=O)N[C@H](C(=O)N[C@@H](CCCCN)C(=O)N[C@@](C)(CC(C)C)C(=O)N[C@@H](CCCCNC(=O)CC[C@H](NC(=O)CCCCCCCCCCCCCCC(=O)O)C(=O)O)C(=O)N[C@@H](CCCCN)C(=O)N[C@H](C(=O)N[C@@H](CC(C)C)C(=O)N[C@@H](CC(C)C)C(=O)N[C@@H](CCC(=O)O)C(=O)N[C@@H](CCC(N)=O)C(=O)N[C@@H](CCC(=O)O)C(=O)N[C@@H](CCCCN)C(=O)N[C@@H](CCC(N)=O)C(=O)N[C@@H](CCCCN)C(=O)N[C@@H](CCCCN)C(=O)N[C@@H](CCC(N)=O)C(=O)N[C@@H](CCCNC(=N)N)C(=O)N[C@@H](CCC(=O)O)C(=O)N[C@@H](CCC(N)=O)C(=O)N[C@@H](C)C(=O)N[C@@H](CCC(=O)O)C(=O)N[C@H](C(=O)N[C@@H](CC(N)=O)C(=O)N[C@H](C(=O)N[C@@H](CCC(N)=O)C(=O)N[C@H](C(=O)N[C@@H](CC(C)C)C(=O)N[C@@H](C)C(=O)N[C@@H](CCC(N)=O)C(=O)N[C@H](C(N)=O)C(C)C)[C@@H](C)CC)C(C)C)[C@@H](C)O)[C@@H](C)CC)[C@@H](C)CC)C(C)C)C(C)C) [SEQ ID NO 50],9,0.26,–
Ac-IVLSLD[dV]PIK[αMeL]K([γGlu-C16 diacid])KILLEQEKQKKQREQAETN[Aib]QILAQV-NH2 (SMILES CC[C@H](C)[C@H](NC(C)=O)C(=O)N[C@H](C(=O)N[C@@H](CC(C)C)C(=O)N[C@@H](CO)C(=O)N[C@@H](CC(C)C)C(=O)N[C@@H](CC(=O)O)C(=O)N[C@@H](C(=O)N1CCC[C@H]1C(=O)N[C@H](C(=O)N[C@@H](CCCCN)C(=O)N[C@@](C)(CC(C)C)C(=O)N[C@@H](CCCCNC(=O)CC[C@H](NC(=O)CCCCCCCCCCCCCCC(=O)O)C(=O)O)C(=O)N[C@@H](CCCCN)C(=O)N[C@H](C(=O)N[C@@H](CC(C)C)C(=O)N[C@@H](CC(C)C)C(=O)N[C@@H](CCC(=O)O)C(=O)N[C@@H](CCC(N)=O)C(=O)N[C@@H](CCC(=O)O)C(=O)N[C@@H](CCCCN)C(=O)N[C@@H](CCC(N)=O)C(=O)N[C@@H](CCCCN)C(=O)N[C@@H](CCCCN)C(=O)N[C@@H](CCC(N)=O)C(=O)N[C@@H](CCCNC(=N)N)C(=O)N[C@@H](CCC(=O)O)C(=O)N[C@@H](CCC(N)=O)C(=O)N[C@@H](C)C(=O)N[C@@H](CCC(=O)O)C(=O)N[C@H](C(=O)N[C@@H](CC(N)=O)C(=O)NC(C)(C)C(=O)N[C@@H](CCC(N)=O)C(=O)N[C@H](C(=O)N[C@@H](CC(C)C)C(=O)N[C@@H](C)C(=O)N[C@@H](CCC(N)=O)C(=O)N[C@H](C(N)=O)C(C)C)[C@@H](C)CC)[C@@H](C)O)[C@@H](C)CC)[C@@H](C)CC)C(C)C)C(C)C) [SEQ ID NO 44],5,0.25,–
